We go through two molecules from publication PMC8385639, “Fluorescence Correlation Spectroscopy Reveals Survival Motor Neuron Oligomerization but No Active Transport in Motor Axons of a Zebrafish Model for Spinal Muscular Atrophy” (Frontiers in Cell and Developmental Biology, 2021).

B1: His6-MBP-zfSMNwt (natural protein, zebrafish, UniProt Q9W6S8 1-281, looked up)
chain: MANGAEDVVFCRGTGQSDDSDIWDDTALIKAYDKAVASFKNALKGEDGATPQENDNPGKKRKNNKKNKSRKRCNAAPDKEWQVGDSCYAFWSEDGNLYTATITSVDQEKGTCVVFYTDYGNEEEQNLSDLLTEPPDMDEDALKTANVKETESSTEESDRSFTPQKSGHAKHKSKSNFPMGPPSWFPSFPPGPPPPPPHFKKMDGRRGEGPGPSFPGWPPMIPLGPPMIPPPPPMSPDFGEDDEALGSMLISWYMSGYHTGYYMGLRQGRKEAAASKKSHRK
notes: Survival motor neuron protein (Smn), zebrafish, wild type; The order of the tags is read from the printed name only; also called zebrafish Smn; zebrafish-Smn only control; source: E. coli BL21(DE3), purified (NiNTA); not shown: His6, N-terminal, kept; MBP, N-terminal, kept

Series [1] deals with the molecule itself. The experiment in a line: SEC; Superdex 200 Increase 10/300 GL; purified fusion proteins run alone and as a mixture; fractions analysed by SDS-PAGE with Coomassie staining. A general note: In gel filtration, larger molecules generally elute earlier.
The series “His6-MBP-zfSMNwt” addresses B1. Described as above. The following applies: both partners purified.

Regarding B1, the binding result in series [1] is recorded as “binds”.

B2: GST-hSMN (252-284) (domain or fragment, human, UniProt Q16637 252-284, looked up)
chain: DSLDDADALGSMLISWYMSGYHTGYYMGFRQNQ
notes: The N-terminal place of GST is read from the printed name only; also called human SMN; human-SMN only control; source: E. coli BL21(DE3), purified (NiNTA); not shown: GST, N-terminal, kept
On to B2, for which the binding result (in series [1]; with His6-MBP-zfSMNwt) was “binds” throughout.
